Source: paper PMC11790859

Target: kalium channelrhodopsin 1 from Hyphochytrium catenoides, slow-cycling mutant C110A (HcKCR1_C110A) (Hyphochytrium catenoides)
Test: cryo-EM structure

- stoichiometry N: 3
Substance: kalium channelrhodopsin 1 from Hyphochytrium catenoides, slow-cycling mutant C110A (HcKCR1_C110A) (domain or fragment)
